Measurements from PMC8902816, “Plasmodium falciparum GBP2 Is a Telomere-Associated Protein That Binds to G-Quadruplex DNA and RNA”.

T1: PfGBP2 (Plasmodium falciparum, UniProt Q8IJX3 1-246)
T1 sequence: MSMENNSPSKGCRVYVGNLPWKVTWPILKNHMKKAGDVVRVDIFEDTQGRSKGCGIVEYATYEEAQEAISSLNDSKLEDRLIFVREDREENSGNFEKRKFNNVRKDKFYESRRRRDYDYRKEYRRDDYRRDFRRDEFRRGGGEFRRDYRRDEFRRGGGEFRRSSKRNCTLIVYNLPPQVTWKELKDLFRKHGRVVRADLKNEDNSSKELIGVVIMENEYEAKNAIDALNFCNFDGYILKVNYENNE


Key:
[1] = target: T1, PfGBP2; assay: EMSA; 50 ng dIdC; EMSA: 1 ug GBP2 (bacterial extract), 50 ng dIdC, 20 fmol biotin probe, 20 min, room temperature, 200-fold competitor, 0.5x TBE 4-12% gel; dot blot/ThT: oligos folded in 100 uM (so in the source) Tris pH 7.8 and 100 uM KCl, or LiCl up to 1 M; conditions: protein: recombinant; tags: 6xHis at N and C termini (pET-28a+); label: 3' biotin (EMSA)
[2] = target: T1, PfGBP2; assay: EMSA; 50 ng dIdC; not efficiently competed by unlabeled RNA, partially by unlabeled DNA; EMSA: 1 ug GBP2 (bacterial extract), 50 ng dIdC, 20 fmol biotin probe, 20 min, room temperature, 200-fold competitor, 0.5x TBE 4-12% gel; dot blot/ThT: oligos folded in 100 uM (so in the source) Tris pH 7.8 and 100 uM KCl, or LiCl up to 1 M; conditions: protein: recombinant; tags: 6xHis at N and C termini (pET-28a+); label: 3' biotin (EMSA)

Binder	binding result [1]	binding result [2]
GTGTATGCGTTATGTGTATGCGTGTGAGTG (ssDNA) [G-rich 1 scram]	no binding	
TTAAAATTTATAATTATAAATTTTAA (ssDNA) [A/T only]	no binding	
UUCAGGGUUCAGGGUUCAGGGUUCAGGGUUC (ssRNA) [RNA G-rich 2]		binds
